Source: paper PMC6486636, “LARP4A recognizes polyA RNA via a novel binding mechanism mediated by disordered regions and involving the PAM2w motif, revealing interplay between PABP, LARP4A and mRNA” (Nucleic Acids Research, 2019)

B1: His-SUMO-MLLE (PABPC1 MLLE domain 544-626 fused with a His-tagged SUMO tag) (domain or fragment, UniProt P11940 544-626, looked up)
chain: PLTASMLASAPPQEQKQMLGERLFPLIQAMHPTLAGKITGMLLEIDNSELLHMLESPESLRSKVDEAVAVLQAHQAKEAAQKA
notes: Fragment 544-626 inserted into pET28SUMO; the tag was kept and used as the handle for Ni-NTA capture; source: E. coli Rosetta II, purified; not shown: His6-SUMO, N-terminal, kept
B2: PABPC1 MLLE (544-626) (domain or fragment, UniProt P11940 544-626, looked up)
chain: PLTASMLASAPPQEQKQMLGERLFPLIQAMHPTLAGKITGMLLEIDNSELLHMLESPESLRSKVDEAVAVLQAHQAKEAAQKA
notes: also called PABP MLLE; MLLE domain; source: E. coli Rosetta II, purified (glutathione agarose, 3C protease, nickel column, SEC); not shown: GST, N-terminal, cleaved

Legend:
Conditions in all cases: both partners purified
LARP4A NTD W22A = molecular target: T1, LARP4A NTD W22A (human, UniProt Q71RC2 1-287, W22A); assay: pull-down; His-SUMO-MLLE (200 ug) as bait mixed with 250 ug untagged LARP4A protein on ice, Ni-NTA agarose, washes in 50 mM Tris pH 7.25, 100 mM KCl, 0.2 mM EDTA, 1 mM DTT, 10 mM imidazole, elution with 500 mM imidazole, Coomassie SDS-PAGE
T1 construct: LARP4A (LARP4), human, residues 1-287, PAM2w single mutant; Generated from the NTD by site-directed mutagenesis; used untagged; source: E. coli Rosetta II, purified (His-Trap, tag cleaved, nickel column, heparin or DEAE); not shown: His6, N-terminal, cleaved

[1] = molecular target: T2, LARP4A (1-287), N-terminal domain (human, UniProt Q71RC2 1-287); assay: as above
T2 construct: LARP4A (LARP4), human, residues 1-287 (NTR 1-111 with PAM2w motif 13-26, plus La module 111-287); The NTD was cloned both with a TEV-cleavable His6 tag (pRSFDuet-1) and with a His6-SUMO tag (pET28SUMO, cut by ULP1); also called NTD; LARP4A NTD; source: E. coli Rosetta II, purified (His-Trap, tag cleaved, nickel column, heparin or DEAE); not shown: His6, N-terminal, cleaved

LARP4A NTD W22F = molecular target: T3, LARP4A NTD W22F (human, UniProt Q71RC2 1-287, W22F); assay: as above
T3 construct: LARP4A (LARP4), human, residues 1-287, PAM2w single mutant; Generated from the NTD by site-directed mutagenesis; used untagged; source: E. coli Rosetta II, purified (His-Trap, tag cleaved, nickel column, heparin or DEAE); not shown: His6, N-terminal, cleaved

LARP4A NTD L15A = molecular target: T4, LARP4A NTD L15A (human, UniProt Q71RC2 1-287, L15A); assay: as above
T4 construct: LARP4A (LARP4), human, residues 1-287, PAM2w single mutant; Generated from the NTD by site-directed mutagenesis; used untagged; source: E. coli Rosetta II, purified (His-Trap, tag cleaved, nickel column, heparin or DEAE); not shown: His6, N-terminal, cleaved

[2] = molecular target: T2, LARP4A (1-287), N-terminal domain; assay: native gel or EMSA; competition EMSA: MLLE 12.5-200 uM titrated into a pre-formed complex of 7.5 uM LARP4A NTD and 2 nM 32P-oligoA15; competition constant KC from the fraction of bound RNA

T2 sequence (Q71RC2 1-287): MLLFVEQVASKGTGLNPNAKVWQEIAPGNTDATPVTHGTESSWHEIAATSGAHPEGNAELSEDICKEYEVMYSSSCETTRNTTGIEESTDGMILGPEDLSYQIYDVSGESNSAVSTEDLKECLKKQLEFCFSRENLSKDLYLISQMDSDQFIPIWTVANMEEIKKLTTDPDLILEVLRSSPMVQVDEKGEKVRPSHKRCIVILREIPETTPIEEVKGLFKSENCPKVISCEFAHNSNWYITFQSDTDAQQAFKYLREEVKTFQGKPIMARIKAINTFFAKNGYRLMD
T3 sequence (Q71RC2 1-287 W22F): as the sequence (Q71RC2 1-287) above, with W22F counted along it
T1 sequence (Q71RC2 1-287 W22A): as the sequence (Q71RC2 1-287) above, with W22A counted along it
T4 sequence (Q71RC2 1-287 L15A): as the sequence (Q71RC2 1-287) above, with L15A counted along it

Binder	binding result (LARP4A NTD W22A)	binding result [1]	binding result (LARP4A NTD W22F)	binding result (LARP4A NTD L15A)	binding result [2]
B1	binds	binds	binds	binds	
B2					binds
